Laboratory results from patent publication US20250163186A1 (PHYLAXIS BIOSCIENCE, published 2025).
Changes are numbered by the printed parent chain.

B1: hzB10v21-NNT (Fc fusion)
VHH-Fc: EVQLLESGGGEVQPGGSLRLSCVASGLTFSSYNMGWLRQAPGKEREFVGLSGSSSTSTYYADSVKGRFTISRDNSKNTVYLQMSSLKPEDTAVYYCAARRLLSTYWSDRSWDFWGQGTQVTVEPGGPSVFLFPPKPKDTLMISRTPEVTCVVVDVSHEDPEVKFNWYVDGVEVHNAKTKPREEQYNSTYRVVSVLTVLHQDWLNGKEYKCKVSNKALPAPIEKTISKAKGQPREPQVYTLPPSRDELTKNQVNLTCLVKGFYPSDIAVEWESNGQPENNYKTTPPVLDSDGSFFLNSTLTVDKSRWQQGNVFSCSVMHEALHNHYTQKSLSLSPGK
notes: monomeric
B2: hzB10v23-NNT (Fc fusion)
VHH-Fc: B1 VHH-Fc with S84N, P88A
notes: monomeric
B3: hzB10v22-NNT (Fc fusion)
VHH-Fc: B1 VHH-Fc with S84N, K87R
notes: monomeric
B4: hzB10v24-NNT (Fc fusion)
VHH-Fc: B1 VHH-Fc with L37V, S84N
notes: monomeric
B5: hzB10v32-NNT (Fc fusion)
VHH-Fc: B1 VHH-Fc with L37V, D62E, S84N, K87R, P88A
notes: monomeric
B6: hzB10v29-NNT (Fc fusion)
VHH-Fc: B1 VHH-Fc with D62E, S84Q, K87R, P88A
notes: monomeric
B7: hzB10v27-NNT (Fc fusion)
VHH-Fc: B1 VHH-Fc with D62E, S84N, K87R, P88A
notes: monomeric
B8: hzB10v31-NNT (Fc fusion)
VHH-Fc: B1 VHH-Fc with D62E, S84N, S85T, K87R, P88A
notes: monomeric
B9: hzB10v34-NNT (Fc fusion)
VHH-Fc: B1 VHH-Fc with L37V, G49S, D62E, S84N, K87R, P88A
notes: monomeric
B10: hzB10v33-NNT (Fc fusion)
VHH-Fc: B1 VHH-Fc with G49S, D62E, S84N, K87R, P88A
notes: monomeric
B11: hzB10v28-NNT (Fc fusion)
VHH-Fc: B1 VHH-Fc with D62E, K87R, P88A
notes: monomeric
B12: Anti-IgE sdAb B10 (parental B10 VHH, dimeric VHH-hIgG1-Fc xELL fusion) (Fc fusion)
chain: EVQLVQSGGELVQAGGSLRLSCVASGLTFSSYNMGWLRQAPGKEREFVGMSGSSSTSTYYADSVKGRFTISRDNSKNTVYLQMNSLKPEDTAVYYCAARRMLSTYWSDRSWDFWGQGTQVTVKPDKTHTCPPCPAPGGPSVFLFPPKPKDTLMISRTPEVTCVVVDVSHEDPEVKFNWYVDGVEVHNAKTKPREEQYNSTYRVVSVLTVLHQDWLNGKEYKCKVSNKALPAPIEKTISKAKGQPREPQVYTLPPSRDELTKNQVSLTCLVKGFYPSDIAVEWESNGQPENNYKTTPPVLDSDGSFFLYSKLTVDKSRWQQGNVFSCSVMHEALHNHYTQKSLSLSPGK
B13: hzB10v14-NNT (Fc fusion)
VHH-Fc: B1 VHH-Fc with S84N
notes: monomeric
B14: hzB10v17-NNT (Fc fusion)
VHH-Fc: B1 VHH-Fc with S63A, S84N
notes: monomeric
B15: hzB10v15-NNT (Fc fusion)
VHH-Fc: B1 VHH-Fc with L37V, G49S, S84N
notes: monomeric
B16: hzB10v16-NNT (Fc fusion)
VHH-Fc: B1 VHH-Fc with D62E, S84N
notes: monomeric
B17: hzB10v20-NNT (Fc fusion)
VHH-Fc: B1 VHH-Fc with V79L, S84N
notes: monomeric
B18: hzB10v18-NNT (Fc fusion)
VHH-Fc: B1 VHH-Fc with S63T, S84N
notes: monomeric
B19: hzB10v4-NNT (Fc fusion)
VHH-Fc: EVQLVQSGGELVQAGGSLRLSCVASGLTFSSYNMGWLRQAPGKEREFVGMSGSSSTSTYYAESVKGRFTISRDNAKNTLYLQMSSLRAEDTAVYYCAARRMLSTYWSDRSWDFWGQGTQVTVKPGGPSVFLFPPKPKDTLMISRTPEVTCVVVDVSHEDPEVKFNWYVDGVEVHNAKTKPREEQYNSTYRVVSVLTVLHQDWLNGKEYKCKVSNKALPAPIEKTISKAKGQPREPQVYTLPPSRDELTKNQVNLTCLVKGFYPSDIAVEWESNGQPENNYKTTPPVLDSDGSFFLNSTLTVDKSRWQQGNVFSCSVMHEALHNHYTQKSLSLSPGK
notes: monomeric
B20: hzB10v6-NNT (Fc fusion)
VHH-Fc: B19 VHH-Fc with E62D, A75S, L79V, S84N, R87K, A88P, K123R
notes: monomeric
B21: hzB10v7-NNT (Fc fusion)
VHH-Fc: B19 VHH-Fc with M50L, E62D, A75S, L79V, S84N, R87K, A88P
notes: monomeric
B22: hzB10v1-NNT (Fc fusion)
VHH-Fc: B1 VHH-Fc with E11L, L50M, S84N, L101M, E123K
notes: monomeric
B23: hzB10v5-NNT (Fc fusion)
VHH-Fc: B19 VHH-Fc with E62D, A75S, L79V, S84N, R87K, A88P, K123E
notes: monomeric
B24: hzB10v3-NNT (Fc fusion)
VHH-Fc: B19 VHH-Fc with L37V, E62D, A75S, L79V, S84N, R87K, A88P
notes: monomeric
B25: hzB10v2-NNT (Fc fusion)
VHH-Fc: B19 VHH-Fc with L37V, G49S, E62D, A75S, L79V, S84N, R87K, A88P
notes: monomeric
B26: hzB10v9-NNT (Fc fusion)
VHH-Fc: B19 VHH-Fc with M50V, E62D, A75S, L79V, S84N, R87K, A88P
notes: monomeric
B27: hzB10v8-NNT (Fc fusion)
VHH-Fc: B19 VHH-Fc with M50I, E62D, A75S, L79V, S84N, R87K, A88P
notes: monomeric
B28: hzB10v13-NNT (Fc fusion)
VHH-Fc: B19 VHH-Fc with L79V, S84N, R87K, A88P, V122A
notes: monomeric
B29: hzB10v12-NNT (Fc fusion)
VHH-Fc: B19 VHH-Fc with E62D, A75S, L79V, S84N, R87K, A88P, M101V
notes: monomeric
B30: hzB10v11-NNT (Fc fusion)
VHH-Fc: B19 VHH-Fc with E62D, A75S, L79V, S84N, R87K, A88P, M101I
notes: monomeric
B31: hzB10v10-NNT (Fc fusion)
VHH-Fc: B19 VHH-Fc with E62D, A75S, L79V, S84N, R87K, A88P, M101L, V122A
notes: monomeric

target: T1, CH2-4 constant domains of human IgE linked to a transmembrane protein, on 293 cells (human, UniProt P01854-1 104-428); test: flow cytometry, 293 cells expressing human IgE CH2-4
T1 construct: domain: CH2-4 constant domains; also called human IgE-expressing 293 cells
Procedure: (§1) First, 25 μg of DNA was added to Opti-MEM Reduced Serum Medium (Gibco) mixed with 75 μL of 40 kDa Polyethylenimine (PEI) for a final concentration of 1 μg DNA and 2.5 μg PEI per mL of culture volume. The plasmid DNA was allowed to pre-complex with PEI for 15 minutes before transferring the mixture to 25 mL of 293 cells in a shake flask at a density of 2×10⁶ cells/mL. […] Next, 50 μL of cells were transferred to wells of a round-bottom 96-well assay plate for a total of 50,000 293 cells per well. In a separate 96-well plate, monomeric VHH-hIgG1-Fc fusion proteins were titrated 1:5 in a 8-point dilution series starting at 1 μM in FACS Buffer with the 8th point containing no antibody. 50 μL from each antibody dilution was added to wells containing 50 μL of FACS Buffer with transfected 293 cells which produced a 2-fold dilution of the antibody concentrations from the dilution series resulting in a 500 nM final, starting concentration of the test article titration. The test articles and 293 cells were incubated together at 4° C. for 30 minutes. Next, the 96-well plates were centrifuged at 400×g for 5 minutes and the FACS buffer containing unbound antibody was decanted. Cells were washed 1× with 150 μL 4° C. FACS Buffer. […] The cells were incubated with the fluorophore conjugated detection antibody at 4° C. for 20 minutes. 293 cells were then centrifuged and washed once as described above. Cell pellets were resuspended in 30 μL FACS Buffer and analyzed on an iQue Screener Plus flow cytometer (Sartorius, IntelliCyt) with a 1 second sip time and 1 second void time. Mean fluorescent intensity was calculated using iQue onboard software gating on GFP+ or citrine+ cells.

T1 sequence (P01854 other isoform, or with tags, fused parts or gaps): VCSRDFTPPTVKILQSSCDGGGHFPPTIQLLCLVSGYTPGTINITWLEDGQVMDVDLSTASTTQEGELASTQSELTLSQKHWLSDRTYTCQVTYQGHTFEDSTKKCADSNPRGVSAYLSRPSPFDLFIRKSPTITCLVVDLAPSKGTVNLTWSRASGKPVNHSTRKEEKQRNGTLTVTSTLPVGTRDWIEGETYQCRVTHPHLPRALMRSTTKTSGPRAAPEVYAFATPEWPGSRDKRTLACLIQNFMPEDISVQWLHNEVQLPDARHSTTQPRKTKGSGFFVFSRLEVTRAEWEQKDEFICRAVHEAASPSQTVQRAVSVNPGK

Binder	Bmax [MFI]	Kd [nM]
B1	1.72e+06	6.4
B2	1.96e+06	1.05
B3	2.08e+06	2.39
B4	1.92e+06	2.52

target: T1, CH2-4 constant domains of human IgE …; test: as above; remark: another data set of the same source
Procedure: as §1

Binder	Bmax [MFI]	Kd [nM]
B5	706000	1.33
B6	605000	2.31
B7	753000	1.16
B8	575000	0.978
B9	375000	0.55
B10	617000	1.94
B11	1.12e+08	7070

target: T1, CH2-4 constant domains of human IgE …; test: as above; remark: another data set of the same source
Procedure: as §1

Binder	Kd [nM]	Bmax [MFI]
B12	0.893	–
B13	2.11	1.95e+06
B14	1.7	2.07e+06
B15	10	1.89e+06
B16	1.89	2.23e+06
B17	6.01	2.24e+06
B18	5.07	1.95e+06
B19	75	3.89e+06
B20	1.95	–
B21	3.71	3.34e+06
B22	1.37	–
B23	2.5	–
B24	342	1.69e+06
B25	1.81	2.46e+06

target: T1, CH2-4 constant domains of human IgE …; test: as above; remark: another data set of the same source
Procedure: as §1

Binder	Bmax [MFI]	Kd [nM]
B12	2.25e+06	0.893
B26	2.83e+06	2.82
B27	2.75e+06	2.74
B28	2.82e+06	3.49
B29	2.72e+06	2.37
B30	3.41e+06	15.6
B31	2.76e+06	1.19
